Assay results as given in publication doi:10.1101/681668 (bioRxiv, 2019).

T1: MBP-ORC1 (human, UniProt Q13415 1-861)
T1 sequence: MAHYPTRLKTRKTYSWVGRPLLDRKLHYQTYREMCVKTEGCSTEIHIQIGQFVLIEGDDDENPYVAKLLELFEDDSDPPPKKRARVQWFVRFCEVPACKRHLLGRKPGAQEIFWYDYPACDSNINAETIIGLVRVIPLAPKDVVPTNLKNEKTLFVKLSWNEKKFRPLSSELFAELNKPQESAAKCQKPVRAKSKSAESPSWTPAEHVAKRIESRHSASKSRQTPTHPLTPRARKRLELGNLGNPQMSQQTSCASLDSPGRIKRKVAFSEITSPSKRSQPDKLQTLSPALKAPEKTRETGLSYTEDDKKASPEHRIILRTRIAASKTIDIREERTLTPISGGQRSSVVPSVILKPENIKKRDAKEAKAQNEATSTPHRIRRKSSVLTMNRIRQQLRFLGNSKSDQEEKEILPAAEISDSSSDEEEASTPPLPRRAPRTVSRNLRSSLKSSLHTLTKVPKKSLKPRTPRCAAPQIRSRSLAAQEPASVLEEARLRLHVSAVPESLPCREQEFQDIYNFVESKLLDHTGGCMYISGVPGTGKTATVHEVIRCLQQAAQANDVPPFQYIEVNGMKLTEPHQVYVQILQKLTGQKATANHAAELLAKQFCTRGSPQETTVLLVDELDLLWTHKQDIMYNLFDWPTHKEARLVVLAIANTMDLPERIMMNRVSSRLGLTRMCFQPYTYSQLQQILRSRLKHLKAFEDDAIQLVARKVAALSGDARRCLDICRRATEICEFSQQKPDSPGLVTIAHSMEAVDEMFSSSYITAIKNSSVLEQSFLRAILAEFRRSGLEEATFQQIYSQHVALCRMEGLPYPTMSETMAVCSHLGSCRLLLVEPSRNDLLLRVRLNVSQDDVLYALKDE

T2: ORC1 230-400-His (human, UniProt Q13415 230-400)
T2 sequence: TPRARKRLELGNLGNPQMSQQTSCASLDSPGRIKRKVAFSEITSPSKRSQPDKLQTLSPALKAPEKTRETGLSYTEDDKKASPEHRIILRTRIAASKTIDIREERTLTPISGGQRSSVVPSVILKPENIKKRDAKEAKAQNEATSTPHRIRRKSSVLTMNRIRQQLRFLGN

T3: GST-CDC6 (human, UniProt Q99741 1-560)
T3 sequence: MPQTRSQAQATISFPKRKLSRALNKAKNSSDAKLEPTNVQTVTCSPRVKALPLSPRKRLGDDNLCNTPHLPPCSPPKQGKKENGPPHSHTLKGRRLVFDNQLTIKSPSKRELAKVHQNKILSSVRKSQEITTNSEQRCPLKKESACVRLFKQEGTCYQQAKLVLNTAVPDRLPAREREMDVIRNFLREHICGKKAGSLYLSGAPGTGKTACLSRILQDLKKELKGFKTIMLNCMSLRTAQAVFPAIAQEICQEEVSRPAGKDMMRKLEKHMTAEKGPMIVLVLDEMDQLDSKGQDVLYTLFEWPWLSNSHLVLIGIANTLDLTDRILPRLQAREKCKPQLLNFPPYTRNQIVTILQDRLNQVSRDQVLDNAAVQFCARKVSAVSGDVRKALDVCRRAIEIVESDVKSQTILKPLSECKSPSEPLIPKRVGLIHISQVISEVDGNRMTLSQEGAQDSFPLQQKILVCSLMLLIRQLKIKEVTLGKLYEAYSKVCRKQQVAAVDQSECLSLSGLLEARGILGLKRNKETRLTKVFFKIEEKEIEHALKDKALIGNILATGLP

B1: MBP-ORC1-230-400 (domain or fragment)
chain: TPRARKRLELGNLGNPQMSQQTSCASLDSPGRIKRKVAFSEITSPSKRSQPDKLQTLSPALKAPEKTRETGLSYTEDDKKASPEHRIILRTRIAASKTIDIREERTLTPISGGQRSSVVPSVILKPENIKKRDAKEAKAQNEATSTPHRIRRKSSVLTMNRIRQQLRFLGN
B2: ORC1-180-240-His (domain or fragment)
chain: QESAAKCQKPVRAKSKSAESPSWTPAEHVAKRIESRHSASKSRQTPTHPLTPRARKRLELG

Each binder was assayed against T1, MBP-ORC1 (assay: pull-down).

| binding result | Binder |
| --- | --- |
| binds | GST-CDC6 with internal deletion of 11-20 (natural protein) MPQTRSQAQARALNKAKNSSDAKLEPTNVQTVTCSPRVKALPLSPRKRLGDDNLCNTPHLPPCSPPKQGKKENGPPHSHTLKGRRLVFDNQLTIKSPSKRELAKVHQNKILSSVRKSQEITTNSEQRCPLKKESACVRLFKQEGTCYQQAKLVLNTAVPDRLPAREREMDVIRNFLREHICGKKAGSLYLSGAPGTGKTACLSRILQDLKKELKGFKTIMLNCMSLRTAQAVFPAIAQEICQEEVSRPAGKDMMRKLEKHMTAEKGPMIVLVLDEMDQLDSKGQDVLYTLFEWPWLSNSHLVLIGIANTLDLTDRILPRLQAREKCKPQLLNFPPYTRNQIVTILQDRLNQVSRDQVLDNAAVQFCARKVSAVSGDVRKALDVCRRAIEIVESDVKSQTILKPLSECKSPSEPLIPKRVGLIHISQVISEVDGNRMTLSQEGAQDSFPLQQKILVCSLMLLIRQLKIKEVTLGKLYEAYSKVCRKQQVAAVDQSECLSLSGLLEARGILGLKRNKETRLTKVFFKIEEKEIEHALKDKALIGNILATGLP |
| binds | GST-CDC6 with internal deletion of 21-30 (natural protein) MPQTRSQAQATISFPKRKLSDAKLEPTNVQTVTCSPRVKALPLSPRKRLGDDNLCNTPHLPPCSPPKQGKKENGPPHSHTLKGRRLVFDNQLTIKSPSKRELAKVHQNKILSSVRKSQEITTNSEQRCPLKKESACVRLFKQEGTCYQQAKLVLNTAVPDRLPAREREMDVIRNFLREHICGKKAGSLYLSGAPGTGKTACLSRILQDLKKELKGFKTIMLNCMSLRTAQAVFPAIAQEICQEEVSRPAGKDMMRKLEKHMTAEKGPMIVLVLDEMDQLDSKGQDVLYTLFEWPWLSNSHLVLIGIANTLDLTDRILPRLQAREKCKPQLLNFPPYTRNQIVTILQDRLNQVSRDQVLDNAAVQFCARKVSAVSGDVRKALDVCRRAIEIVESDVKSQTILKPLSECKSPSEPLIPKRVGLIHISQVISEVDGNRMTLSQEGAQDSFPLQQKILVCSLMLLIRQLKIKEVTLGKLYEAYSKVCRKQQVAAVDQSECLSLSGLLEARGILGLKRNKETRLTKVFFKIEEKEIEHALKDKALIGNILATGLP |
| binds | GST-CDC6 1-110 (domain or fragment) MPQTRSQAQATISFPKRKLSRALNKAKNSSDAKLEPTNVQTVTCSPRVKALPLSPRKRLGDDNLCNTPHLPPCSPPKQGKKENGPPHSHTLKGRRLVFDNQLTIKSPSKR |
| binds | GST-CDC6 with internal deletion of 51-70 (natural protein) MPQTRSQAQATISFPKRKLSRALNKAKNSSDAKLEPTNVQTVTCSPRVKAPPCSPPKQGKKENGPPHSHTLKGRRLVFDNQLTIKSPSKRELAKVHQNKILSSVRKSQEITTNSEQRCPLKKESACVRLFKQEGTCYQQAKLVLNTAVPDRLPAREREMDVIRNFLREHICGKKAGSLYLSGAPGTGKTACLSRILQDLKKELKGFKTIMLNCMSLRTAQAVFPAIAQEICQEEVSRPAGKDMMRKLEKHMTAEKGPMIVLVLDEMDQLDSKGQDVLYTLFEWPWLSNSHLVLIGIANTLDLTDRILPRLQAREKCKPQLLNFPPYTRNQIVTILQDRLNQVSRDQVLDNAAVQFCARKVSAVSGDVRKALDVCRRAIEIVESDVKSQTILKPLSECKSPSEPLIPKRVGLIHISQVISEVDGNRMTLSQEGAQDSFPLQQKILVCSLMLLIRQLKIKEVTLGKLYEAYSKVCRKQQVAAVDQSECLSLSGLLEARGILGLKRNKETRLTKVFFKIEEKEIEHALKDKALIGNILATGLP |
| binds | GST-CDC6 with internal deletion of 71-90 (natural protein) MPQTRSQAQATISFPKRKLSRALNKAKNSSDAKLEPTNVQTVTCSPRVKALPLSPRKRLGDDNLCNTPHLLKGRRLVFDNQLTIKSPSKRELAKVHQNKILSSVRKSQEITTNSEQRCPLKKESACVRLFKQEGTCYQQAKLVLNTAVPDRLPAREREMDVIRNFLREHICGKKAGSLYLSGAPGTGKTACLSRILQDLKKELKGFKTIMLNCMSLRTAQAVFPAIAQEICQEEVSRPAGKDMMRKLEKHMTAEKGPMIVLVLDEMDQLDSKGQDVLYTLFEWPWLSNSHLVLIGIANTLDLTDRILPRLQAREKCKPQLLNFPPYTRNQIVTILQDRLNQVSRDQVLDNAAVQFCARKVSAVSGDVRKALDVCRRAIEIVESDVKSQTILKPLSECKSPSEPLIPKRVGLIHISQVISEVDGNRMTLSQEGAQDSFPLQQKILVCSLMLLIRQLKIKEVTLGKLYEAYSKVCRKQQVAAVDQSECLSLSGLLEARGILGLKRNKETRLTKVFFKIEEKEIEHALKDKALIGNILATGLP |

The binders below were run against B2 (assay: pull-down).

| binding result | Binder |
| --- | --- |
| binds | MBP-ORC1-350-400 (domain or fragment) SVILKPENIKKRDAKEAKAQNEATSTPHRIRRKSSVLTMNRIRQQLRFLGN |

What follows are binders tested against T2, ORC1 230-400-His (assay: pull-down).

| binding result | Binder |
| --- | --- |
| binds | MBP-ORC1-100-250 (domain or fragment) RHLLGRKPGAQEIFWYDYPACDSNINAETIIGLVRVIPLAPKDVVPTNLKNEKTLFVKLSWNEKKFRPLSSELFAELNKPQESAAKCQKPVRAKSKSAESPSWTPAEHVAKRIESRHSASKSRQTPTHPLTPRARKRLELGNLGNPQMSQQ |

What follows are binders tested against T3, GST-CDC6 (assay: pull-down).

| binding result | Binder |
| --- | --- |
| binds | MBP-ORC1 1-240 (domain or fragment) MAHYPTRLKTRKTYSWVGRPLLDRKLHYQTYREMCVKTEGCSTEIHIQIGQFVLIEGDDDENPYVAKLLELFEDDSDPPPKKRARVQWFVRFCEVPACKRHLLGRKPGAQEIFWYDYPACDSNINAETIIGLVRVIPLAPKDVVPTNLKNEKTLFVKLSWNEKKFRPLSSELFAELNKPQESAAKCQKPVRAKSKSAESPSWTPAEHVAKRIESRHSASKSRQTPTHPLTPRARKRLELG |
| binds | B1 |
| binds | MBP-ORC1-230-400 A-A (domain or fragment) TPRARARAELGNLGNPQMSQQTSCASLDSPGRIKRKVAFSEITSPSKRSQPDKLQTLSPALKAPEKTRETGLSYTEDDKKASPEHRIILRTRIAASKTIDIREERTLTPISGGQRSSVVPSVILKPENIKKRDAKEAKAQNEATSTPHRIRRKSSVLTMNRIRQQLRFLGN |
| binds | MBP-ORC1 180-400 (domain or fragment) QESAAKCQKPVRAKSKSAESPSWTPAEHVAKRIESRHSASKSRQTPTHPLTPRARKRLELGNLGNPQMSQQTSCASLDSPGRIKRKVAFSEITSPSKRSQPDKLQTLSPALKAPEKTRETGLSYTEDDKKASPEHRIILRTRIAASKTIDIREERTLTPISGGQRSSVVPSVILKPENIKKRDAKEAKAQNEATSTPHRIRRKSSVLTMNRIRQQLRFLGN |
| binds | MBP-ORC1-180-240 (domain or fragment) QESAAKCQKPVRAKSKSAESPSWTPAEHVAKRIESRHSASKSRQTPTHPLTPRARKRLELG |
| binds | MBP-ORC1 fragment (165-250) (domain or fragment) FRPLSSELFAELNKPQESAAKCQKPVRAKSKSAESPSWTPAEHVAKRIESRHSASKSRQTPTHPLTPRARKRLELGNLGNPQMSQQ |
| binds | MBP-ORC1-350-400 (domain or fragment) SVILKPENIKKRDAKEAKAQNEATSTPHRIRRKSSVLTMNRIRQQLRFLGN |

Each binder was assayed against B1 (assay: pull-down).

| binding result | Binder |
| --- | --- |
| binds | B2 |
